Measured values from the supplement of paper PMC9112550, “Optimization of the antimicrobial peptide Bac7 by deep mutational scanning” (BMC Biology, 2022).

Tested on: Escherichia coli TOP10
Experiment: shrunken log2 fold change of peptide-encoding DNA abundance (4.5 h post-induction vs induction); higher = less antimicrobial activity (less host growth inhibition)
Details: time post-induction: 4.5 h; library: site-saturation at positions 5, 18, 19, 20
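Note: peptides expressed intracellularly from a pBAD plasmid library in pooled LB shake-flask culture, induced with 0.3% L-arabinose, DNA abundance read by NGS, three biological replicates, DESeq2 with apeglm shrinkage.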

Sequence | shrunken log2 fold change
RRIRVRPPRLPRPRPRPNREPRP | -0.0873
RRIRMRPPRLPRPRPRPDSMPRP | 0.025
RRIRERPPRLPRPRPRPNFIPRP | -0.442
RRIRYRPPRLPRPRPRPKALPRP | 0.178
RRIRMRPPRLPRPRPRPETFPRP | 0.211
RRIRWRPPRLPRPRPRPWRQPRP | 0.25
RRIRLRPPRLPRPRPRPLVCPRP | -0.0954
RRIRRRPPRLPRPRPRPFCGPRP | 0.143
RRIRLRPPRLPRPRPRPQVQPRP | -0.0263
RRIRQRPPRLPRPRPRPELAPRP | 0.577
RRIRRRPPRLPRPRPRPTKSPRP | 0.226
RRIRSRPPRLPRPRPRPICIPRP | -0.494
RRIRRRPPRLPRPRPRPNIKPRP | 0.153
RRIRRRPPRLPRPRPRPGHIPRP | -0.116
RRIRCRPPRLPRPRPRPPVRPRP | 0.519
RRIRWRPPRLPRPRPRPLIHPRP | -0.0681
RRIRSRPPRLPRPRPRPGHCPRP | 0.0298
RRIRSRPPRLPRPRPRPTGNPRP | -0.275
RRIRFRPPRLPRPRPRPWYRPRP | -0.0778
RRIRMRPPRLPRPRPRPDSCPRP | -0.00101
RRIRPRPPRLPRPRPRPNPNPRP | 0.367
RRIRTRPPRLPRPRPRPQRFPRP | 0.00548
RRIRSRPPRLPRPRPRPYWLPRP | -0.248
RRIRIRPPRLPRPRPRPYWYPRP | -0.0124
RRIRFRPPRLPRPRPRPYVQPRP | -0.0133

Sequence | shrunken log2 fold change
RRIRFRPPRLPRPRPRPILDPRP | -0.0134
RRIRDRPPRLPRPRPRPISPPRP | -0.036
RRIRDRPPRLPRPRPRPPYQPRP | 0.251
RRIRIRPPRLPRPRPRPSIAPRP | -0.628
RRIRYRPPRLPRPRPRPHHYPRP | -1.79
RRIRPRPPRLPRPRPRPHITPRP | -0.759
RRIRLRPPRLPRPRPRPTVMPRP | 0.105
RRIRYRPPRLPRPRPRPCTEPRP | -0.531
RRIRNRPPRLPRPRPRPAGCPRP | 0.00181
RRIRWRPPRLPRPRPRPARNPRP | 0.256
RRIRQRPPRLPRPRPRPLFAPRP | 0.013
RRIRWRPPRLPRPRPRPWCAPRP | 0.0379
RRIRARPPRLPRPRPRPYIHPRP | -0.681
RRIRIRPPRLPRPRPRPTNLPRP | -0.606
RRIRCRPPRLPRPRPRPRVRPRP | 0.197
RRIRMRPPRLPRPRPRPDVCPRP | 0.0762
RRIRLRPPRLPRPRPRPFTMPRP | -0.764
RRIRPRPPRLPRPRPRPPGKPRP | 0.335
RRIRPRPPRLPRPRPRPFDDPRP | -0.189
RRIRIRPPRLPRPRPRPMSWPRP | -0.402
RRIRHRPPRLPRPRPRPACEPRP | 0.0343
RRIRVRPPRLPRPRPRPELYPRP | 0.0948
RRIRCRPPRLPRPRPRPGRHPRP | 0.105
RRIRIRPPRLPRPRPRPAMTPRP | -0.366
RRIRNRPPRLPRPRPRPAYIPRP | -0.786

Sequence | shrunken log2 fold change
RRIRPRPPRLPRPRPRPWQVPRP | -0.0573
RRIRCRPPRLPRPRPRPIWMPRP | -0.677
RRIRIRPPRLPRPRPRPFIAPRP | -0.719
RRIRHRPPRLPRPRPRPVPEPRP | 0.143
RRIRYRPPRLPRPRPRPTPPPRP | 0.421
RRIRARPPRLPRPRPRPYTMPRP | -0.301
RRIRSRPPRLPRPRPRPKTIPRP | -0.174
RRIRHRPPRLPRPRPRPDVWPRP | 0.15
RRIRSRPPRLPRPRPRPVGKPRP | -0.0806
RRIRGRPPRLPRPRPRPSEYPRP | -0.0981
RRIRKRPPRLPRPRPRPQACPRP | -0.109
RRIRIRPPRLPRPRPRPSWQPRP | 0.144
RRIRVRPPRLPRPRPRPCACPRP | 0.0537
RRIRFRPPRLPRPRPRPWVCPRP | 0.029
RRIRQRPPRLPRPRPRPRNPPRP | 0.375
RRIRMRPPRLPRPRPRPFTEPRP | 0.0426
RRIRDRPPRLPRPRPRPNLAPRP | -0.0121
RRIRNRPPRLPRPRPRPHFAPRP | 0.0588
RRIRVRPPRLPRPRPRPPGYPRP | 0.0333
RRIRCRPPRLPRPRPRPGQYPRP | -0.479
RRIRYRPPRLPRPRPRPLSFPRP | -1.04
RRIRYRPPRLPRPRPRPYQNPRP | -0.467
RRIRWRPPRLPRPRPRPMTYPRP | -0.289
RRIRFRPPRLPRPRPRPTRDPRP | 0.613
RRIRTRPPRLPRPRPRPRVRPRP | 2.2

Sequence | shrunken log2 fold change
RRIRHRPPRLPRPRPRPNKAPRP | 0.147
RRIRDRPPRLPRPRPRPLDFPRP | 0.0675
RRIRVRPPRLPRPRPRPGWGPRP | 0.621
RRIRWRPPRLPRPRPRPRNKPRP | 0.0794
RRIRIRPPRLPRPRPRPLHVPRP | -0.135
RRIRWRPPRLPRPRPRPNCWPRP | 0.533
RRIRQRPPRLPRPRPRPQVYPRP | -0.0731
RRIRWRPPRLPRPRPRPACKPRP | -0.0942
RRIRTRPPRLPRPRPRPYKGPRP | -0.0116
RRIRPRPPRLPRPRPRPVDCPRP | 0.00936
RRIRQRPPRLPRPRPRPYCIPRP | -0.0416
RRIRPRPPRLPRPRPRPGHDPRP | 0.235
RRIRLRPPRLPRPRPRPVACPRP | 0.0944
RRIRVRPPRLPRPRPRPVMYPRP | -0.251
RRIRNRPPRLPRPRPRPPRDPRP | 0.499
RRIRGRPPRLPRPRPRPPFPPRP | 1.17
RRIRMRPPRLPRPRPRPPDKPRP | 1.03
RRIRRRPPRLPRPRPRPVHKPRP | 0.092
RRIRGRPPRLPRPRPRPMPNPRP | -0.0294
RRIRERPPRLPRPRPRPADEPRP | -0.032
RRIRYRPPRLPRPRPRPSMYPRP | -0.418
RRIRRRPPRLPRPRPRPKSIPRP | -0.0792
RRIRFRPPRLPRPRPRPCWGPRP | 0.00445
RRIRVRPPRLPRPRPRPAFMPRP | -0.352
RRIRMRPPRLPRPRPRPEKTPRP | -0.0246

Sequence | shrunken log2 fold change
RRIRFRPPRLPRPRPRPNMKPRP | 0.234
RRIRHRPPRLPRPRPRPYPNPRP | -0.014
RRIRFRPPRLPRPRPRPSMIPRP | -0.603
RRIRIRPPRLPRPRPRPWPGPRP | -0.172
RRIRARPPRLPRPRPRPHTPPRP | 0.152
RRIRPRPPRLPRPRPRPGIFPRP | 0.0736
RRIRLRPPRLPRPRPRPWKNPRP | -0.114
RRIRNRPPRLPRPRPRPMMNPRP | 0.274
RRIRCRPPRLPRPRPRPLKYPRP | -0.566
RRIRKRPPRLPRPRPRPVEYPRP | 0.0119
RRIRERPPRLPRPRPRPAYTPRP | -0.284
RRIRYRPPRLPRPRPRPWVYPRP | -0.234
RRIRPRPPRLPRPRPRPDFSPRP | 0.0658
RRIRPRPPRLPRPRPRPLPPPRP | 0.36
RRIRWRPPRLPRPRPRPVAPPRP | 0.522
RRIRSRPPRLPRPRPRPELLPRP | -0.111
RRIRWRPPRLPRPRPRPIDCPRP | 0.0353
RRIRVRPPRLPRPRPRPYRWPRP | -0.355
RRIRHRPPRLPRPRPRPLCDPRP | -0.397
RRIRSRPPRLPRPRPRPHNLPRP | -0.33
RRIRDRPPRLPRPRPRPERWPRP | 1.3
RRIRDRPPRLPRPRPRPGVGPRP | 0.519
RRIRIRPPRLPRPRPRPYMLPRP | -0.916
RRIRGRPPRLPRPRPRPRVQPRP | 0.218
RRIRWRPPRLPRPRPRPAIYPRP | -0.259
